Laboratory results published in paper PMC10584835.

Target: N-terminal eGFP fused human CHFR mutant lacking forkhead-associated domain (human) (UniProt Q96EP1)
Assay: co-IP; anti-GFP agarose beads (GFP-Trap) pull-down from lysates of HMEC transfected with eGFP-CHFR constructs, 48 h after transfection; 150 ug lysate protein, 2 h at 4 C; immunoblot for endogenous VE-cadherin; ratio of VE-cadherin to GFP-CHFR quantified

UniProt Q96EP1, sequence (Q96EP1 whole entry, change not shown, the tested form may be a part): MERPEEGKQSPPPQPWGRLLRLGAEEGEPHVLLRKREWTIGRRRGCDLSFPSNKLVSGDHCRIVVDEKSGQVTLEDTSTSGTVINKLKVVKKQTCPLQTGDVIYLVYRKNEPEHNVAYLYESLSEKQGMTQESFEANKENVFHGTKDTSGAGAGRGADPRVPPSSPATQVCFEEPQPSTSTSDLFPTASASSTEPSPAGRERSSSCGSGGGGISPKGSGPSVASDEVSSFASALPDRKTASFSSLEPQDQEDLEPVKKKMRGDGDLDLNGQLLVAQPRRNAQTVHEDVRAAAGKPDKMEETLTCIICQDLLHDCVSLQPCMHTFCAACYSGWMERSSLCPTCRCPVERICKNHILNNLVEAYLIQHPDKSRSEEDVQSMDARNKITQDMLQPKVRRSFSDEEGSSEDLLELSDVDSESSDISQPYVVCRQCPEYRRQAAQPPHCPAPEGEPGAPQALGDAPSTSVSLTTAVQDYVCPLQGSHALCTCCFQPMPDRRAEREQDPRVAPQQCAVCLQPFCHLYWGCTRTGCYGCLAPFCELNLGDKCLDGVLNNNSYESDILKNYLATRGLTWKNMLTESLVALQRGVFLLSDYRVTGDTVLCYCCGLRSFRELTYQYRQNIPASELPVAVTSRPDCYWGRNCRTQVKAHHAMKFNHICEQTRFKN

fold binding against WT-CHFR: 2 fold
B1: VE-cadherin, endogenous in HMEC (natural protein)
chain: DWIWNQMHIDEEKNTSLPHHVGKIKSSVSRKNAKYLLKGEYVGKVFRVDAETGDVFAIERLDRENISEYHLTAVIVDKDTGENLETPSSFTIKVHDVNDNWPVFTHRLFNASVPESSAVGTSVISVTAVDADDPTVGDHASVMYQILKGKEYFAIDNSGRIITITKSLDREKQARYEIVVEARDAQGLRGDSGTATVLVTLQDINDNFPFFTQTKYTFVVPEDTRVGTSVGSLFVEDPDEPQNRMTKYSILRGDYQDAFTIETNPAHNEGIIKPMKPLDYEYIQQYSFIVEATDPTIDLRYMSPPAGNRAQVIINITDVDEPPIFQQPFYHFQLKENQKKPLIGTVLAMDPDAARHSIGYSIRRTSDKGQFFRVTKKGDIYNEKELDREVYPWYNLTVEAKELDSTGTPTGKESIVQVHIEVLDENDNAPEFAKPYQPKVCENAVHGQLVLQISAIDKDITPRNVKFKFILNTENNFTLTDNHDNTANITVKYGQFDREHTKVHFLPVVISDNGMPSRTGTSTLTVAVCKCNEQGEFTFCEDMAAQVGVSIQAVVAILLCILTITVITLLIFLRRRLRKQARAHGKSVPEIHEQLVTYDEEGGGEMDTTSYDVSVLNSVRRGGAKPPRPALDARPSLYAQVQKPPRHAPGAHGGPGEMAAMIEVKKDEADHDGDGPPYDTLHIYGYEGSESIAESLSSLGTDSSDSDVDYDFLNDWGPRFKMLAELYGSDPREELLY
